Data from article PMC11449375.

What was measured:
[1] = target: AMC008 SOSIP.v9 (HIV-1 clade B, AMC008); test: negative-stain EM; purified SOSIPs incubated with Adjuplex, on carbon-covered copper grids, 2% uranyl formate; 2D class averages
[2] = target: AMC008 SOSIP.v9 (HIV-1 clade B, AMC008); test: native gel or EMSA; Blue Native-PAGE of the purified SOSIP.v9 proteins, 3-12% Bis-Tris NuPAGE gel, 2 ug protein, Colloidal blue stain
[3] = target: AMC009 SOSIP.v9 (HIV-1 clade B, AMC009); test: negative-stain EM; purified SOSIPs incubated with Adjuplex, on carbon-covered copper grids, 2% uranyl formate; 2D class averages
[4] = target: AMC009 SOSIP.v9 (HIV-1 clade B, AMC009); test: native gel or EMSA; Blue Native-PAGE of the purified SOSIP.v9 proteins, 3-12% Bis-Tris NuPAGE gel, 2 ug protein, Colloidal blue stain
[5] = target: AMC011 SOSIP.v9 (HIV-1 clade B, AMC011); test: negative-stain EM; purified SOSIPs incubated with Adjuplex, on carbon-covered copper grids, 2% uranyl formate; 2D class averages
[6] = target: AMC011 SOSIP.v9 (HIV-1 clade B, AMC011); test: native gel or EMSA; Blue Native-PAGE of the purified SOSIP.v9 proteins, 3-12% Bis-Tris NuPAGE gel, 2 ug protein, Colloidal blue stain
[7] = target: AMC016 SOSIP.v9 (HIV-1 clade B, AMC016); test: negative-stain EM; purified SOSIPs incubated with Adjuplex, on carbon-covered copper grids, 2% uranyl formate; 2D class averages
[8] = target: AMC016 SOSIP.v9 (HIV-1 clade B, AMC016); test: native gel or EMSA; Blue Native-PAGE of the purified SOSIP.v9 proteins, 3-12% Bis-Tris NuPAGE gel, 2 ug protein, Colloidal blue stain
[9] = target: TRO.11 SOSIP.v9 (HIV-1 clade B, TRO.11); test: negative-stain EM; purified SOSIPs incubated with Adjuplex, on carbon-covered copper grids, 2% uranyl formate; 2D class averages
[10] = target: TRO.11 SOSIP.v9 (HIV-1 clade B, TRO.11); test: native gel or EMSA; Blue Native-PAGE of the purified SOSIP.v9 proteins, 3-12% Bis-Tris NuPAGE gel, 2 ug protein, Colloidal blue stain

AMC008 SOSIP.v9 (complex)
stoichiometry N [1]: 3
stoichiometry N [2]: 3

AMC009 SOSIP.v9 (complex)
stoichiometry N [3]: 3
stoichiometry N [4]: 3

AMC011 SOSIP.v9 (complex)
stoichiometry N [5]: 3
stoichiometry N [6]: 3

AMC016 SOSIP.v9 (complex)
stoichiometry N [7]: 3
stoichiometry N [8]: 3

TRO.11 SOSIP.v9 (complex)
stoichiometry N [9]: 3
stoichiometry N [10]: 3
